# Experimental data taken from US10155811B2, “APLNR modulators and uses thereof” (Regeneron Pharmaceuticals, Inc., priority 2013, dated 2018).
# Values joined by “and” are separate entries in the source; they are usually repeats but may differ in a detail not shown here. Equal entries are not always repeated. “Also recorded” adds a separate entry of the source.
# T1: hAPLNR (Homo sapiens, UniProt P35414)
# T1 sequence (P35414 1-380): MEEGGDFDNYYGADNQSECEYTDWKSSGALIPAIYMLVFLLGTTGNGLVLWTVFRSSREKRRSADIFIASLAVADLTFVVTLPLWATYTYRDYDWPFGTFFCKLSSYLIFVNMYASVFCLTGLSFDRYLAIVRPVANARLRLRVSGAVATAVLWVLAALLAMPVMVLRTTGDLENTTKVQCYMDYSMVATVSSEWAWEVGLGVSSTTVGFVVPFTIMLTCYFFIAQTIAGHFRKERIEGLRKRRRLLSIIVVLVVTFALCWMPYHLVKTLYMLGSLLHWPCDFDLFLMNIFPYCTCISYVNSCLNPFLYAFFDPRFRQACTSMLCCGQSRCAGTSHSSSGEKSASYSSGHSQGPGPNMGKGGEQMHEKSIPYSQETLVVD
# How the values were obtained:
# [1] = biological target: T1, hAPLNR; assay: CRE assay of modified apelin peptides in HEK293/CRE-luc/hAPLNR cells; format: cell-based; set-up: expressed in transfected cells
# Description: Briefly, an HEK293 cell line was transfected to stably express the full-length human hAPLNR (amino acids 1-380 of accession number NP_005152.1), along with a luciferase reporter [cAMP response element (CRE,4X)-luciferase]. […] After 5 hours of incubation at 37° C. in 5% CO2, luminescence was measured following the addition of One Glo reagent (Promega, #E6051) using a Victor X instrument (Perkin Elmer). The data were fit by nonlinear regression to a 4-parameter logistic equation with Prism 5 software (GraphPad).
# [2] = tested on: HEK293 parental cells; assay: FACS binding to HEK293 parental cells; conditions: Table 3; 10 μg/mL antibody; anti-mouse IgG Alexa 647
# Description: Binding ratios for human APLNR binding to purified anti-APLNR monoclonal antibodies were determined by a fluorescence-activated cell sorting (FACS) binding assay. […] The resulting stable cell lines, HEK293/CRE-luc/hAPLNR and HEK293/CRE-luc/MfAPLNR, were maintained in DMEM containing 10% FBS, NEAA, and penicillin/streptomycin with either 100 μg/mL Hygromycin B for hAPLNR cells or 500 μg/mL G418 for MfAPLNR cells.
# For the FACS analysis, HEK293 parental, HEK293/CRE-luc/hAPLNR, and, HEK293/CRE-luc/mfAPLNR cells were dissociated using Enzyme Free Dissociation reagent (#S-004, Millipore, Billerica, Mass., USA) and 10^6 cells/well were plated onto 96-well v-bottom plates in PBS containing 1% FBS. […] Cells were then filtered and analyzed on Accuri Flow Cytometer (BD Biosciences, San Jose, Calif., USA). Unstained and secondary antibody alone controls were also tested for binding to all cell lines. […] Geometric mean (Geom. mean) of fluorescence for each antibody was then normalized to geometric mean of unstained cells to obtain relative binding of antibody (binding ratios) per each cell type: HEK293 (parental), HEK293/CRE-luc/hAPLNR and HEK293/CRE-luc/MfAPLNR.
# [3] = biological target: T1, hAPLNR; assay: CRE-luciferase cyclic AMP assay, activation of hAPLNR (inhibition of Forskolin-induced cAMP) in HEK293/CRE-luc/hAPLNR cells; format: cell-based; set-up: expressed in transfected cells; conditions: without Apelin, % of maximum Apelin activation
# Description: The ability of anti-APLNR antibodies to activate hAPLNR-mediated cell signaling was measured using a cyclic AMP assay. The hAPLNR is a 7-transmembrane G-protein coupled receptor (GPCR).
# The resulting cell line, HEK293/CRE-luc/hAPLNR, was maintained in DMEM containing 10% FBS, NEAA, pencillin/streptomycin, and 100 μg/mL Hygromycin B.
# Testing of antibodies included a no antibody control.
# The results of all assays were analyzed using nonlinear regression (4-parameter logistics) within Prism 5 software (GraphPad).
# [4] = biological target: T1, hAPLNR; assay: retinal vascular development (RVD) model in humanized APLNR mouse pups; format: in vivo; set-up: from tissue; host or cells: developing retina of humanized APLNR mouse pups (75% C57BL6 / 25% Sv129), in vivo
# Description: A retinal vascular development (RVD) model was used to evaluate the effects of an antagonistic anti-APLNR antibody on blood vessel outgrowth in the normal developing retina of mouse pups that were of a mixed background strain (75% C57BL6 and 25% Sv129) and homozygous for expression of human APLNR in place of mouse APLNR (humanized APLNR mice). Pups were subcutaneously injected on postnatal day 2 (P2) with either 50 mg/kg of an anti-APLNR antagonist antibody, H2aM9232N, or an irrelevant human Fc (hFc) control. Reagents were masked and labeled as Solution A and Solution B to prevent experimenter bias. At postnatal day 5, tissue samples were collected and then fixed in PBS containing 4% paraformaldehyde. Fixed tissue samples were washed with PBS three times for 15 minutes, and subsequently stained with GS Lectin I (Vector Laboratories, #FL-1101) diluted 1:200 in 1×PBS containing 1% BSA in 0.25% Triton-X 100 overnight at 25° C. to visualize retinal vasculature. The following day, stained samples were rinsed with PBS three times for 15 minutes each, flat-mounted onto slides, and coverslips were subsequently mounted using Prolong Gold (Invitrogen, #P36930). Images were taken at 20 times magnification using an epi-fluorescent microscope (Nikon Eclipse 80). The vascularized areas in the retina were measured from acquired images from this assay using Adobe Photoshop CS6 extended. Statistical differences between the results obtained from the IgG control antibody and H2aM9232N treated samples were assessed using a two tailed, unpaired Student T-test (**, p<0.001). Only after retinal vasculature area measurements and statistical analysis were completed, the sample identities were unmasked.
molecule,measurement,setting,value
CSCC[C@H](NC(=O)[C@@H]1CCCN1C(=O)CNC(=O)[C@H](CCCCN)NC(=O)[C@H](Cc1c[nH]cn1)NC(=O)[C@H](CO)NC(=O)[C@H](CC(C)C)NC(=O)[C@H](CCCNC(=N)N)NC(=O)[C@@H]1CCCN1C(=O)[C@H](CCCNC(=N)N)NC(=O)[C@@H](N)CCC(N)=O)C(=O)N1CCC[C@H]1C(=O)N[C@@H](Cc1ccccc1)C(=O)NCC(=O)NCC(=O)NCC(=O)NCC(=O)NCC(=O)O [Apelin-13 + 5G],efficacy in the CRE assay relative to apelin-13,[1],retain full efficacy
"H2aM9232N: antagonistic anti-APLNR antibody, HCVR/LCVR SEQ ID NO: 98/106, mouse IgG2a Fc (antibody, V domains shown, mouse IgG2a Fc) VH: QVKLVESGGGVVQPGRSLRLSCAASGFTFSNYVIHWVRQAPGKGLEWVAVIWYDGSNKYYADSVKGRFTISRDNSKNTLYLQMNSLRAEDTAVYYCARDRVVRGVDYYYYYGLDVWGQGTSVTVSS VL: EIVMTQSPATLSVSPGERATLSCRASQSVRSNLAWYQQKPGQAPRLLIYGASSRATGIPARFSGTGSGTEFTLTISSLQSDDFAVYYCQQYNKWPRTFGQGTKVEIK","Binding Ratio of Geom. Mean to Unstained Cells, HEK293 Parental",[2],6
same,% Activation at 100 nM mAb (at 10 uM Forskolin),[3]; Table 6A,No Activation
same,% Activation at 500 nM mAb (at […] Forskolin),[3]; Table 6B,did not demonstrate any measurable activation; also recorded: No Activation
same,"Retinal blood vessel outgrowth (mm^2), MEAN","[4]; group mean, 50 mg/kg subcutaneous at P2, measured at P5",2.84 mm^2
same,Retinal blood vessel outgrowth (mm^2),"[4]; individual eyes (OD/OS), 50 mg/kg subcutaneous at P2, measured at P5, 50 mg/kg",2.49 mm^2 and 3.04 mm^2 and 3.57 mm^2 and 3.32 mm^2 and 2.23 mm^2 and 2.36 mm^2
same,mean reduction in retinal blood vessel outgrowth compared to control (hFc),"[4]; single subcutaneous injection 50 mg/kg, postnatal day 5",approximately 30%
